Results as given in publication PMC2901396.

Target: DNA polymerase gamma catalytic subunit p140, Exo- R964C (Homo sapiens, UniProt P54098 26-1239, D198A;E200A;R964C)
Assay: EMSA

Chain of DNA polymerase gamma catalytic subunit p140, Exo- R964C (P54098 26-1239 D198A/E200A/R964C): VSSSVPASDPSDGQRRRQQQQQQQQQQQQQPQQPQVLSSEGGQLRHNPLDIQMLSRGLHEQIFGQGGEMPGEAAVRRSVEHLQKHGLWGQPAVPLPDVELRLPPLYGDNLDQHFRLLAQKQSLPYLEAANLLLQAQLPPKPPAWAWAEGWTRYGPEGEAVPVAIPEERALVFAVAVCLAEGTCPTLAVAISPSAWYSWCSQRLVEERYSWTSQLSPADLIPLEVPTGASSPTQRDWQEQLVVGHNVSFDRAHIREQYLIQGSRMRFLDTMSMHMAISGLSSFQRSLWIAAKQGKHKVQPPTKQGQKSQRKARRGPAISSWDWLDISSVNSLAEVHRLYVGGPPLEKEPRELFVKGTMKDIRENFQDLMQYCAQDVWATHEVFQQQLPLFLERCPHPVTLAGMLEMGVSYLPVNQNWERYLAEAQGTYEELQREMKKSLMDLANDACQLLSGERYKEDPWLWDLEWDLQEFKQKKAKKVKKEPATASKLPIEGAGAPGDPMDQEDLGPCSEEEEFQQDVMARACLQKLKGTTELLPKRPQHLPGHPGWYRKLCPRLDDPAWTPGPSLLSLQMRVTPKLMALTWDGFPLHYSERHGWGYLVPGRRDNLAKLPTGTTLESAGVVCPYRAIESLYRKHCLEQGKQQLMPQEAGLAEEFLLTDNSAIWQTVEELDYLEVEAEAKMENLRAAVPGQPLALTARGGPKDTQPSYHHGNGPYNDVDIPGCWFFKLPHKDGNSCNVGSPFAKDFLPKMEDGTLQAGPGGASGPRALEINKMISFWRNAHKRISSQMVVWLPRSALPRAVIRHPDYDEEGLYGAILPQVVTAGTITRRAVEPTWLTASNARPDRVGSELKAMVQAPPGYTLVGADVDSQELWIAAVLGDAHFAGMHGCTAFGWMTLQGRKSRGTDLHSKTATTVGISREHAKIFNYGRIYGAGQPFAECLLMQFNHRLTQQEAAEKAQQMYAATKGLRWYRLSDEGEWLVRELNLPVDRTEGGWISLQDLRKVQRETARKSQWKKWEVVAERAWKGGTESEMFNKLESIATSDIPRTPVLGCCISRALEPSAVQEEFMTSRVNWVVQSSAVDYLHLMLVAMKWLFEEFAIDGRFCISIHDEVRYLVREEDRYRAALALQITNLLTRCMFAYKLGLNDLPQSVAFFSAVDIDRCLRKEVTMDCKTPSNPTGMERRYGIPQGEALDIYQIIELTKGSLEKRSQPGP

B1: 38-mer/34-mer primer-template (dsDNA)
DNA 1: TTATCGCACCTACGTTCAATATTACAGGCGAACATACT
DNA 2: GTATGTTCGCCTGTAATATTGAACGTAGGTGCGA
- Kd: 75 ± 4 nM
